Results: US20200010571A1 (Janssen / Centocor, published 2020)
Changes are numbered by the printed parent chain. Where “and” joins values, the source holds several entries; their conditions need not be identical. Equal values may be shown once.

Experiments:
mouse IL-17A [1] = biological target: T1, mouse IL-17A (mouse, UniProt Q62386 26-158); test: SPR (Biacore 3000)
T1 sequence: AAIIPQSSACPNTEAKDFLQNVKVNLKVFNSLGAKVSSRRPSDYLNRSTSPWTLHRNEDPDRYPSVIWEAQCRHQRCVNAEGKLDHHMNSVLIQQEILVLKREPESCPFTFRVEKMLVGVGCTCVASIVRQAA

rat IL-17A [2] = biological target: T2, rat IL-17A (rat, UniProt Q61453 18-150); test: SPR (Biacore 3000)
T2 chain: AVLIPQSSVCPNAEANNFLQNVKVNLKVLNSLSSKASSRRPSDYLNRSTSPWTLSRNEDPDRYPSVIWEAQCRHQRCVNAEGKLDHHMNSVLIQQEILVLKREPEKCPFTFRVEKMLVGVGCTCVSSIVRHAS

cynomolgus IL-17A [3] = biological target: T3, cynomolgus IL-17A (cynomolgus, UniProt Q16552 24-155 (human entry), limits assumed); test: SPR (Biacore 3000), mAb captured by anti-IgG Fc, antigen in solution, 1:1 Langmuir;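 also: run in PBS containing BSA and P20 at 25 °C, antigen injected at four dilutions, 3 min association, dissociation followed 20 min to 2 h, two independent experiments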
T3 construct: also called Cyno IL-17A
T3 chain: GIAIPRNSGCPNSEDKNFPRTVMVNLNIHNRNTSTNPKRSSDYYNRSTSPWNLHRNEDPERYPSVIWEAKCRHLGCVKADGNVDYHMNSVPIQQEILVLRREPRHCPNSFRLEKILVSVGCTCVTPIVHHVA

[4] = biological target: T4, human IL-17A (recombinant) (human, UniProt Q16552 24-155); test: SPR (Biacore 3000), mAb captured by anti-IgG Fc, antigen in solution, 25 C, 1:1 Langmuir
T4 construct: Biotinylated in the IL-17RA ELISA; also called rhIL-17A

[5] = biological target: T5, rhTNF-α (recombinant human, soluble) (human, UniProt P01375 77-233); test: cell-based or functional assay
[6] = biological target: T5, rhTNF-α (recombinant human, soluble); test: cell-based or functional assay; remark: listed apart in the source
[7] = biological target: T5, rhTNF-α (recombinant human, soluble); test: cell-based or functional assay; remark: listed apart in the source
[8] = biological target: protease-resistant form of human transmembrane TNF-α (lacks amino acids Val1 to Pro12) overexpressed by K2 … (human, UniProt P01375 1-233); test: cell-based or functional assay
[9] = biological target: native (endogenous) human TNF-α (human, UniProt P01375 77-233); test: cell-based or functional assay
cynomolgus TNF-α [10] = biological target: T6, cynomolgus TNF-α (cynomolgus, UniProt P79337 77-233); test: cell-based or functional assay
[11] = biological target: T4, human IL-17A (recombinant); test: cell-based or functional assay
[12] = biological target: T4, human IL-17A (recombinant); test: cell-based or functional assay; remark: listed apart in the source
[13] = biological target: T7, recombinant human IL-17A/F heterodimer (human, UniProt Q16552 24-155; Q96PD4 31-163); test: cell-based or functional assay
[14] = biological target: T7, recombinant human IL-17A/F heterodimer; test: cell-based or functional assay; remark: listed apart in the source
cynomolgus IL-17A [15] = biological target: T3, cynomolgus IL-17A; test: cell-based or functional assay
cynomolgus IL-17A [16] = biological target: T3, cynomolgus IL-17A; test: cell-based or functional assay
recombinant human IL-17F = biological target: T8, recombinant human IL-17F (human, UniProt Q96PD4 31-163); test: binding to rhIL-17A in the absence or presence of IL-17F
T8 sequence: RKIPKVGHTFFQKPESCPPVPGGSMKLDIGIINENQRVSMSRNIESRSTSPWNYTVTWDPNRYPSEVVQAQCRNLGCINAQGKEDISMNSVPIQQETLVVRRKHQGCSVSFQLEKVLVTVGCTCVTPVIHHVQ

mouse TNF-α = biological target: T9, mouse TNF-α (mouse, UniProt P06804 80-235); test: SPR (Biacore 3000), mAb captured by anti-IgG Fc, antigen in solution
T9 sequence: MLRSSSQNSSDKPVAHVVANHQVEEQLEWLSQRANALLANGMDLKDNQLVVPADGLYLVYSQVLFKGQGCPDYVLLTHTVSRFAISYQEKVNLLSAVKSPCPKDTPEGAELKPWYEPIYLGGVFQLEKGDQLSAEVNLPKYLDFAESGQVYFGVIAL

rat TNF-α = biological target: T10, rat TNF-α (rat, UniProt P16599 80-235); test: as above
T10 sequence: T9 sequence with V23A, V59I, N92S, V97I, I118M, Q131L, F144I, A145T

[17] = biological target: T4, human IL-17A (recombinant); test: competition ELISA: biotinylated rhIL-17A binding to plate-coated rhIL-17RA-Fc
cynomolgus TNF-α [18] = biological target: T6, cynomolgus TNF-α; test: SPR (Biacore 3000), mAb captured by anti-IgG Fc, antigen in solution, 1:1 Langmuir
mouse IL-17A [19] = biological target: T1, mouse IL-17A; test: as above
rat IL-17A [20] = biological target: T2, rat IL-17A; test: as above
[21] = biological target: T5, rhTNF-α (recombinant human, soluble); test: SPR (Biacore 3000), mAb captured by anti-IgG Fc, antigen in solution, 25 C, 1:1 Langmuir
[22] = biological target: T4, human IL-17A (recombinant); test: competition ELISA: biotinylated rhIL-17A binding to plate-coated rhIL-17RA-Fc; Experiment 2; 95% CI 0.1474-0.1920
[23] = biological target: T4, human IL-17A (recombinant); test: competition ELISA: biotinylated rhIL-17A binding to plate-coated rhIL-17RA-Fc; Experiment 3; 95% CI 0.2433-0.2757
[24] = biological target: T4, human IL-17A (recombinant); test: competition ELISA: biotinylated rhIL-17A binding to plate-coated rhIL-17RA-Fc; Experiment 1; 95% CI 0.09343-0.1160

B1: mAb 6785 (original parental anti-IL-17A mAb) (antibody, V domains shown)
VH: QVQLLESGGGLVQPGGSLRLSCAASGFTFSSYAMSWVRQAPGKGLEWVSTISLTSGFTYYADSVKGRFTISRDNSKNTLYLQMNSLRAEDTAVYYCARQLTLDVWGQGTLVTVSS
VL: QSVLTQPPSVSVAPGQTARISCSGDNLGDKYANWYQQKPGQAPVLVIYDDIDRPSGIPERFSGSNSGNTATLTISGTQAEDEADYYCGSYDFFLGMIVFGGGTKLTVL
binding result (mouse IL-17A [1]): binds | binding result (rat IL-17A [2]): binds | Kd (cynomolgus IL-17A [3]): 0.0286 nM | koff (cynomolgus IL-17A [3]): 3.68e-05 s⁻¹ | kon (cynomolgus IL-17A [3]): 1.29e+06 M⁻¹ s⁻¹ | Kd [4]: 0.0309 nM | koff [4]: 4.79e-05 s⁻¹ | kon [4]: 1.55e+06 M⁻¹ s⁻¹

B2: mAb 9762 (bispecific anti-TNF-α/IL-17A antibody, IgG1) (bispecific antibody)
heavy 1: not shown
light 1: not shown
heavy 2: not shown
light 2: QSVLTQPPSVSVAPGQTARISCSGDNLGDKYANWYQQKPGQAPVLVIYDDIDRPSGIPERFSGSNSGNTATLTISGTQAEDEADYYCGSYDFFLGMIVFGGGTKLTVLGQPKAAPSVTLFPPSSEELQANKATLVCLISDFYPGAVTVAWKADSSPVKAGVETTTPSKQSNNKYAASSYLSLTPEQWKSHRSYSCQVTHEGSTVEKTVAPTECS
fold of IC50 against the parental anti-TNF-α antibodies mAb 9809 and mAb 6696; rhTNF-α-induced cytotoxicity in WEHI-164 cells [5]: ~3 fold | IC50 (nM); WEHI-164 cells cytotoxicity mediated by soluble rhTNF-α; Experiment 1 [6]: 1.28 nM | IC50 (nM); WEHI-164 cells cytotoxicity mediated by soluble rhTNF-α; Experiment 2 [6]: 2.07 nM | IC50 (nM); WEHI-164 cells cytotoxicity mediated by soluble rhTNF-α; Experiment 3 [6]: 0.631 nM | IC50 (nM); KYM-1D4 cells, cytotoxicity mediated by soluble rhTNF-α; Experiment 1 [7]: 0.152 nM | IC50 (nM); KYM-1D4 cells, cytotoxicity mediated by soluble rhTNF-α; Experiment 2 [7]: 0.343 nM | IC50 (nM); KYM-1D4 cells, cytotoxicity mediated by soluble rhTNF-α; Experiment 3 [7]: 0.169 nM | IC50 (nM); KYM-1D4 cells, cytotoxicity mediated by membrane bound human TNF-α; Experiment 1 [8]: 0.82 nM | IC50 (nM); KYM-1D4 cells, cytotoxicity mediated by membrane bound human TNF-α; Experiment 2 [8]: 0.966 nM | IC50 (nM); KYM-1D4 cells, cytotoxicity mediated by membrane bound human TNF-α; Experiment 3 [8]: 0.425 nM | IC50 (nM); KYM-1D4 cells, cytotoxicity mediated by endogenous soluble TNF-α; Experiment 1 [9]: 0.346 nM | IC50 (nM); KYM-1D4 cells, cytotoxicity mediated by endogenous soluble TNF-α; Experiment 2 [9]: 0.327 nM | IC50 (nM); KYM-1D4 cells, cytotoxicity mediated by endogenous soluble TNF-α; Experiment 3 [9]: 0.197 nM | IC50 (nM); Inhibition of cyno TNF-α mediated cytotoxicity in WEHI-164 cells; Experiment 1 (cynomolgus TNF-α [10]): 4.42 nM | IC50 (nM); Inhibition of cyno TNF-α mediated cytotoxicity in WEHI-164 cells; Experiment 2 (cynomolgus TNF-α [10]): 20.6 nM | IC50 (nM); Inhibition of cyno TNF-α mediated cytotoxicity in WEHI-164 cells; Experiment 3 (cynomolgus TNF-α [10]): 9.29 nM | IC50 (µg/mL); Inhibition of native IL-17A mediated GROα production by NHDF; Experiment 1 [11]: 0.081 µg/mL | IC50 (µg/mL); Inhibition of native IL-17A mediated GROα production by NHDF; Experiment 2 [11]: 0.0648 µg/mL | IC50 (µg/mL); Inhibition of native IL-17A mediated GROα production by NHDF; Experiment 3 [11]: 0.0508 µg/mL | IC50 (µg/mL); Inhibition of native IL-17A mediated IL-6 production by NHDF; Experiment 1 [12]: 0.0501 µg/mL | IC50 (µg/mL); Inhibition of native IL-17A mediated IL-6 production by NHDF; Experiment 2 [12]: 0.0445 µg/mL | IC50 (µg/mL); Inhibition of native IL-17A mediated IL-6 production by NHDF; Experiment 3 [12]: 0.049 µg/mL | IC50 (µg/mL); Inhibition of IL-17A/F mediated GROα production by NHDF; Experiment 1 [13]: 0.549 µg/mL | IC50 (µg/mL); Inhibition of IL-17A/F mediated GROα production by NHDF; Experiment 2 [13]: 0.436 µg/mL | IC50 (µg/mL); Inhibition of IL-17A/F mediated GROα production by NHDF; Experiment 3 [13]: 0.392 µg/mL | IC50 (µg/mL); Inhibition of IL-17A/F mediated IL-6 production by NHDF; Experiment 1 [14]: 0.135 µg/mL | IC50 (µg/mL); Inhibition of IL-17A/F mediated IL-6 production by NHDF; Experiment 2 [14]: 0.174 µg/mL | IC50 (µg/mL); Inhibition of IL-17A/F mediated IL-6 production by NHDF; Experiment 3 [14]: 0.131 µg/mL | IC50 (µg/mL); Inhibition of cyno IL-17A mediated GROα production by NHDF; Experiment 1 (cynomolgus IL-17A [15]): 0.299 µg/mL | IC50 (µg/mL); Inhibition of cyno IL-17A mediated GROα production by NHDF; Experiment 2 (cynomolgus IL-17A [15]): 0.329 µg/mL | IC50 (µg/mL); Inhibition of cyno IL-17A mediated GROα production by NHDF; Experiment 3 (cynomolgus IL-17A [15]): 0.137 µg/mL | IC50 (µg/mL); Inhibition of cyno IL-17A mediated IL-6 production by NHDF; Experiment 2 (cynomolgus IL-17A [16]): 0.0784 µg/mL | IC50 (µg/mL); Inhibition of cyno IL-17A mediated IL-6 production by NHDF; Experiment 3 (cynomolgus IL-17A [16]): 0.0583 µg/mL | binding result (recombinant human IL-17F): no binding | binding result (mouse TNF-α): no binding (tested: up to 100 nM) | binding result (rat TNF-α): no binding (tested: up to 100 nM) | fold IC50 against the parental anti-IL-17A antibodies mAb 4782 and mAb 7206 [17]: ~3 fold | Kd (cynomolgus TNF-α [18]): 0.399 nM and 0.186 nM | koff (cynomolgus TNF-α [18]): 0.000103 s⁻¹ and 0.000127 s⁻¹ | kon (cynomolgus TNF-α [18]): 259000 M⁻¹ s⁻¹ and 681000 M⁻¹ s⁻¹ | Kd (cynomolgus IL-17A [3]): 0.0236 nM and 0.0318 nM | koff (cynomolgus IL-17A [3]): 3.66e-05 s⁻¹ and 4.57e-05 s⁻¹ | kon (cynomolgus IL-17A [3]): 1.55e+06 M⁻¹ s⁻¹ and 1.43e+06 M⁻¹ s⁻¹ | Kd (mouse IL-17A [19]): 0.997 nM | koff (mouse IL-17A [19]): 0.00103 s⁻¹ | kon (mouse IL-17A [19]): 1.03e+06 M⁻¹ s⁻¹ | Kd (rat IL-17A [20]): 15.4 nM | koff (rat IL-17A [20]): 0.00316 s⁻¹ | kon (rat IL-17A [20]): 205000 M⁻¹ s⁻¹ | Kd [21]: 0.0188 nM and 0.0211 nM | koff [21]: 3.81e-05 s⁻¹ and 3.63e-05 s⁻¹ | kon [21]: 2.02e+06 M⁻¹ s⁻¹ and 1.72e+06 M⁻¹ s⁻¹ | Kd [4]: 0.022 nM and 0.0453 nM | koff [4]: 4.15e-05 s⁻¹ and 3.99e-05 s⁻¹ | kon [4]: 1.88e+06 M⁻¹ s⁻¹ and 882000 M⁻¹ s⁻¹ | IC50 [22]: 0.168 µg/mL | IC50 [23]: 0.259 µg/mL | IC50 [24]: 0.104 µg/mL
